From article PMC5643494, “TRPA1–FGFR2 binding event is a regulatory oncogenic driver modulated by miRNA-142-3p” (Nature Communications, 2017)
Positions count from the first letter of the chain named. Names and notes keep the numbering of the source.

B1: GST fusion of FGFR2 residues 764-821 with P804A (C4) (domain or fragment, UniProt P21802 764-821, looked up)
chain: TTNEEYLDLSQPLEQYSPSYPDTRSSCSSGDDSVFSPDPMAYEPCLPQYPHINGSVKT
notes: FGFR2, last 58 amino acids, residues 764-821, P804A
B2: GST fusion of the last 58 amino acids of FGFR2 (residues 764-821), wild-type construct (C) (domain or fragment, UniProt P21802 764-821, looked up)
chain: B1 chain with A41P
notes: FGFR2, last 58 amino acids, residues 764-821; PGEX vector

Columns and labels:
[1] = biological target: TRPA1-GFP truncated of 5 ankyrin repeats (Δ5-GFP); experiment: FRET or BRET; FLIM-FRET in fixed serum-starved HEK 293T cells co-expressing FGFR2-RFP with Δ5-GFP or Δ10-GFP; shift of GFP lifetime against empty GFP vector
[2] = biological target: T1, purified full-length human TRPA1 (human, UniProt O75762 1-1119, biotinylated with EDC-based carboxyl-biotinylation reagent (streptavidin pull-down); labeled with Alexafluor 488 (MST); unlabelled in the GST pull-down); experiment: pull-down; GST constructs on glutathione-sepharose beads incubated with purified full-length TRPA1; western blot; details: both partners purified
T1 construct: human TRPA1, full length; kept in PBS with 0.014% F-14; also called hTRPA1; full-length purified TRPA1; source: Pichia pastoris, purified (Ni-NTA)
T1 sequence (O75762 whole entry): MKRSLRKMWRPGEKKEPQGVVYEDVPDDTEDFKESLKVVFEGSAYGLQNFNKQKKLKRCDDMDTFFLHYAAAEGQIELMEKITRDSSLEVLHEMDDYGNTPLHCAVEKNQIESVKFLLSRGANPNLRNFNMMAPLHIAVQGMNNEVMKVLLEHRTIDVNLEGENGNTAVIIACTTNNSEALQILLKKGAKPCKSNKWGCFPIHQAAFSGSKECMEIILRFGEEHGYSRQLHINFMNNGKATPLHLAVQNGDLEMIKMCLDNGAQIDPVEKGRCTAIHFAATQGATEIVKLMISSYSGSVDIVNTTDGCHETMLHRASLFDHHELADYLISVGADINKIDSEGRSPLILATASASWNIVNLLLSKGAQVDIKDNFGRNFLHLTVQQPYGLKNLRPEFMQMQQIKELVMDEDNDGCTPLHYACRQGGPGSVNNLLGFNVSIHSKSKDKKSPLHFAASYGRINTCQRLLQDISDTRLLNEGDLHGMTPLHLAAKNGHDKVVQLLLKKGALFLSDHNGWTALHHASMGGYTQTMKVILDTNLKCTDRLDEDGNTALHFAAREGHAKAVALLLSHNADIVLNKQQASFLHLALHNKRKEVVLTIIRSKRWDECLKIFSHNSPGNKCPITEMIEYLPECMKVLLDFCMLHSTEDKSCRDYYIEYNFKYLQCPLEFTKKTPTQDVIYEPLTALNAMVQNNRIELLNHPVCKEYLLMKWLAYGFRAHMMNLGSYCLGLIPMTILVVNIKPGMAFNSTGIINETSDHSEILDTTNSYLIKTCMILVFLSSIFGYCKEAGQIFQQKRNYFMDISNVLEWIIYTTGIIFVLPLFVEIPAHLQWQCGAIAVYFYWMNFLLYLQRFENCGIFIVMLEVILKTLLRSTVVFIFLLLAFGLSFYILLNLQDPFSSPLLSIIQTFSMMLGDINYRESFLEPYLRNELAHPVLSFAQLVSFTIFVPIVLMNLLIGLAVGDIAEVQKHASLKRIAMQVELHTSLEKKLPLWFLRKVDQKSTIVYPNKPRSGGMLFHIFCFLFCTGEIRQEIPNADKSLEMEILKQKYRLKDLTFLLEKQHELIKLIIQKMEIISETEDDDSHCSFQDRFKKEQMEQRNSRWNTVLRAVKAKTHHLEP

TRPA1-GFP truncated of 5 ankyrin repeats (Δ5-GFP), sequence (O75762 whole entry, stated change not applied, the tested form may be a part): as the sequence (O75762 whole entry) above

| Molecule | shift of GFP fluorescence lifetime (FLIM-FRET) [1] [ns] | binding result [2] |
| --- | --- | --- |
| FGFR2-RFP (from UniProt P21802 22-821) (receptor) | 0.09 |  |
| B1 |  | binds |
| B2 |  | binds |
